Biological target: human CXCR2 (human) (UniProt P25025)
Assay: cell-based or functional assay

Chain of human CXCR2 (human) (P25025 whole entry): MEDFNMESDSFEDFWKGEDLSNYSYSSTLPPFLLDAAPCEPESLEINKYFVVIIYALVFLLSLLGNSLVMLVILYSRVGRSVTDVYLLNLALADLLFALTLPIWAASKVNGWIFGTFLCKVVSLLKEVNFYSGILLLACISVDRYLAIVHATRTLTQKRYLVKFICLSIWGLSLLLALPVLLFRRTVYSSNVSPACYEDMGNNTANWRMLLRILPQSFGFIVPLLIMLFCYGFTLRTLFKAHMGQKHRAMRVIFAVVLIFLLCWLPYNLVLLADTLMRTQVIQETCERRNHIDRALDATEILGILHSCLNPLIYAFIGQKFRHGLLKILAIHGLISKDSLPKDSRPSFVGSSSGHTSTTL

EC50 mean, Tango assay: 0.0396 µM | EC50 mean, calcium flux assay: 0.00714 µM
B1: human CXCL7 (ligand, UniProt P02775 59-128, looked up)
chain: AELRCMCIKTTSGIHPKNIQSLEVIGKGTHCNQVEVIATLKDGRKICLDPDAPRIKKIVQKKLAGDESAD
